{"source": "patent US20260152753", "test_system": "κ-casein (in skim milk)", "data": [{"substance": "PEP4 aspartyl protease of the Pichia pastoris host cell", "values": [{"measurement": "SDS electrophoresis after 24 hours at 5 °C, 0.5% b-lactoglobulin from a pep4-containing host, heated and unheated", "value": "the k-casein peak in both the heated and unheated samples had markedly reduced in size and a peak in the position expected for para-k-casein was present"}, {"measurement": "SDS-PAGE of heated skim milk with B-lac from a pep4-containing host: κ-casein band and para-κ-casein band", "value": "the band intensity of the k-casein band decreased and a peptide band consistent with that of para-k-casein appeared"}, {"measurement": "SDS-PAGE of unheated skim milk with B-lac from a pep4-containing host: κ-casein band and para-κ-casein band", "value": "the band intensity of the k-casein band decreased and a peptide band consistent with that of para-k-casein appeared"}, {"measurement": "lab-on-a-chip para-κ-casein peak area 24 h after 80 °C/30 min treatment, sample B-lac 1A (start: 0)", "value": "After 24 hours, the peak area was 115.2 and 35.82 for κ-casein and para-κ-casein, respectively"}, {"measurement": "lab-on-a-chip para-κ-casein peak area 24 h after 120 °C/10 min treatment, sample B-lac 1A (start: 0)", "value": "After 24 hours, the peak area was 179.4 and 16.12 for κ-casein and para-κ-casein, respectively"}, {"measurement": "lab-on-a-chip peak area of para-κ-casein formed at 24 h at 5 °C, sample B-lac 1A (0 h: 0)", "value": 147, "unit": "peak area"}, {"measurement": "lab-on-a-chip peak area of para-κ-casein formed at 24 h at 5 °C, sample B-lac 1B (0 h: 0)", "value": 56.1, "unit": "peak area"}, {"measurement": "lab-on-a-chip κ-casein peak area 24 h after 80 °C/30 min treatment, sample B-lac 1A (start: 249.48)", "value": "After 24 hours, the peak area was 115.2 and 35.82 for κ-casein and para-κ-casein, respectively"}, {"measurement": "lab-on-a-chip κ-casein peak area 24 h after 120 °C/10 min treatment, sample B-lac 1A (start: 249.6)", "value": "After 24 hours, the peak area was 179.4 and 16.12 for κ-casein and para-κ-casein, respectively"}, {"measurement": "lab-on-a-chip κ-casein peak area at 24 h at 5 °C, sample B-lac 1A (0 h: 255)", "value": "91.5 (64% degraded)"}, {"measurement": "lab-on-a-chip κ-casein peak area at 24 h at 5 °C, sample B-lac 1B (0 h: 253.98)", "value": "138.72 (46% degraded)"}, {"measurement": "microfluidic chip SDS-PAGE of skim milk with about 1% B-Lac 1A held 0, 24 or 48 hours at room temperature", "value": "showed evidence of proteolysis on storage with a decrease in the band associated with k-casein, and a new peptide peak appearing"}, {"measurement": "κ-casein degraded 24 h after 80 °C/30 min treatment, sample B-lac 1A", "value": "indicating that κ-casein had degraded by 54%"}, {"measurement": "κ-casein degraded 24 h after 120 °C/10 min treatment, sample B-lac 1A", "value": "indicating that κ-casein had degraded by 72%"}, {"measurement": "κ-casein degraded after 24 h at 5 °C, sample B-lac 1A", "value": "91.5 (64% degraded)"}, {"measurement": "κ-casein degraded after 24 h at 5 °C, sample B-lac 1B", "value": "138.72 (46% degraded)"}]}]}
